US20140127683
Like-named read-outs stand apart in the source and are kept apart here.

How the values were obtained:
[1] = molecular target: T1, mYOX1 (Naegleria gruberi) (UniProt D2W6T1); details: LC-MS, 20 uM mYOX1, Bis-TRIS pH 6.0, Fe(II), alpha-ketoglutarate
T1 sequence: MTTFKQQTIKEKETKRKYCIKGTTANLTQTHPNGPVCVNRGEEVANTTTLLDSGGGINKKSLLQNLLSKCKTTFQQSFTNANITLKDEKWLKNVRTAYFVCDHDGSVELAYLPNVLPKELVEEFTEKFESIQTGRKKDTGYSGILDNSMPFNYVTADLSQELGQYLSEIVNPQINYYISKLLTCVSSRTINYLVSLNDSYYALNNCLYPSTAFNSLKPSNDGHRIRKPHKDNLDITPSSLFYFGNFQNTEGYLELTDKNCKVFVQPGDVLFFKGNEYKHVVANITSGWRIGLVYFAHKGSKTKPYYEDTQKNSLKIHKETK

[2] = molecular target: T1, mYOX1 (Naegleria gruberi); details: LC-MS after NaBH4 reduction and T4-BGT, caC 29.3%, ghmC 67.7%, mC 3.0%

## IMR90 genomic DNA
[1]; caC 89.1%, hmC 1.7%, fC 8.7%, mC 0.5%
  activity (% 5mC oxidized): 99.5

## MG1655 genomic DNA
[2]
  activity (% 5mC oxidized): 97

## pTXB1-M.SssI plasmid
[1]; caC 91.2%, hmC 1.8%, fC 5.9%, mC 1.0%
  activity (% 5mC oxidized): 99
